We go through four molecules from US20230190653A1, “METHOD FOR REDUCING OFF-TARGET UPTAKE OR ACCUMULATION OF AGENTS” (The Regents of the University of Colorado, A Body Corporate, priority 2021, published 2023).

Data set [1] can be described thus: Particle size measurement (Malvern Zetasizer / dynamic light scattering). It is filed as physicochemical. The settings on record: approximately 150 kD. On the procedure:
Lipids were dissolved in chloroform and used to prepare liposomes comprised of sphingosine:cholesterol:DAPC at a mole ratio of 3:2:5 in water as previously described. Briefly, the lipid mixture was dried with nitrogen gas to achieve a thin film that was incubated under vacuum overnight before rehydration with distilled water and sonication to achieve clarity (1-2 min). Lactosylceramide or PEG-ceramide were included in the chloroform-lipid mixture and incorporated into liposomes at a 5% mole ratio as previously described. […] The diameters of these preparations were 237.9±7.5 (lactose) and 273.4±10.4 (PEG) nm as reported previously.
Sphingosine, cholesterol, 1,2-diarachidoyl-sn-glycero-3-phosphocholine (DAPC), and C16-PEG750-Ceramide were purchased from Avanti® Polar Lipids (Alabaster, Ala.) and used to prepare liposomes at a 3:2:4.5:0.5 mole ratio (respectively) as previously described. The liposomes preparations have an average diameter of 135 nm, a PDI of 0.137, and were prepared in 5% dextrose to adjust the tonicity of the injection solution. […] A Malvern Zetasizer Nano-ZS was used for all size measurements.
FITC-dextran was chosen for these studies since it is commonly used to quantify endothelial and epithelial cell barrier permeability.

Data set [2] is described as follows: Direct injection of IFN-γ into tumors, persistence of cytokine levels. The settings on record: preliminary, data not shown. It is filed as in vivo. From the text:
In contrast to inflammatory cytokines (e.g., TNF-α, IFN-γ, IFN-α, IFN-β) that increase vascular permeability, IFN-λ works specifically on the endothelial/epithelial cells to strengthen barrier integrity and prevent viral invasion. […] Ultimately, the lack of a tightening response in the tumor epithelium allows nanoparticles unaltered access to the tumor upon repeat administration.

The subject of the next data set is CT26 tumor-bearing mice. Put plainly: Doxil accumulation in organs and tumor after IFN-λ pre-treatment. The data set is classed as in vivo, Balb/c mice. From the text:
Tumor Bearing Experiments: Prior to treatment, female immunocompetent Balb/c mice 6-10 weeks old were acquired from Jackson labs (Bar Harbor, Me.) and allowed to acclimate for one week. The mice were then inoculated in the right flank with approximately 1 million CT26 murine colon carcinoma cells (ATCC #CRL-2638). Tumors were allowed to grow for approximately 7 days or until tumor size reached at least 100 mm^3. […] Twenty-four hours after the dextran/Doxil® injections, animals were euthanized, and organs collected for dextran/drug accumulation analysis.
A standard curve of fluorescence for doxorubicin was determined through fluorescence measurements of a serially diluted stock solution of the Doxil® in 90% isopropyl alcohol (IPA) acidified with HCl to a final concentration of 0.075 M. Fluorescence measurements were conducted in a CellStar™ μClear™ 96-Well, Cell Culture-Treated, Flat-Bottom Microplate from Greiner Bio-One™ (Monroe, N.C.) at an excitation of 470 nm and emission of 595 nm using a Molecular Devices (San Jose, Calif.) SpectraMax® M5. […] The equation from the resulting standard curve of fluorescence from each specific organ was used to calculate the total amount of doxorubicin extracted from a corresponding Doxil® treated organ.
Organs collected from animals were immediately flash-frozen in liquid nitrogen and stored at −80° C. until analysis. […] Doxorubicin fluorescence of the extracted solution was then measured, and total doxorubicin accumulation was then calculated using the doxorubicin fluorescence standard curves described above. […]
To assess the effects of IFN-λ pre-treatment on Doxil® accumulation, mice were intravenously injected with either 100 μL of 1×PBS or 1 μg of IFN-λ in 100 μL 1×PBS. […] After an additional 24 hours following Doxil administration, tissues were harvested from experimental mice and the total Doxil accumulation in tissues was determined using the extraction method and standard curves described above. […]

Data set [3] has as its system IFNLR1 (interferon lambda receptor 1) gene expression. Put plainly: IFNLR1 gene expression by RT-qPCR in primary human liver epithelial cells. The data set is classed as cell-based. The settings on record: 24 hours treatment. On the procedure: (§1) Interferon Lambda Receptor 1 (IFNλR1) mRNA Expression Quantification by Reverse Transcription-Polymerase Chain Reaction (RT-qPCR): Human Lung Microvascular Endothelial Cells (540-05A) (HLMVECs) purchased from Sigma-Aldrich® (Burlington, Mass.) were cultured and left untreated or treated with 100 ng/mL recombinant human IL-29 (R&D Systems® 1598-IL-025) or 100 ng/mL IL-28A/B (R&D Systems® 8417-IL-025/5259-IL-025) for 24 hours. […] After 24 hours, using TaqMan™ Fast Advanced Cells-to-CT™ kit purchased from Invitrogen™ (Waltham, Mass.), cells were collected according to manufacturer recommendations and IFNλR1 expression was quantified. PCR assay ID Hs00417120_ml (ThermoFisher Scientific™, Agawam, M A) was used to quantify IFNλR1 gene expression and PCR assay ID Hs03928985_g1 (ThermoFisher Scientific™, Agawam, M A) was used to quantify reference gene RNA18S5 expression.
(§2) To test the hypothesis that microvascular endothelial cells and liver epithelial cells respond to IFN-λ, real-time quantitative polymerase chain reaction (RT-qPCR) analysis was used to determine Interferon Lambda Receptor 1 (IFN λR1) gene expression in primary Human Lung Microvascular Endothelial Cells and primary Human Liver Epithelial Cells (TABLES 4 and 5). […] However, liver epithelial cells do express IFN λR1 and show an increase in IFN λR1 gene expression in response to IFN-λ and lipoplex treatment.

The test system of a further data set is IFNLR1 gene expression. Put plainly: IFNLR1 gene expression by RT-qPCR in primary human lung microvascular endothelial cells. It is filed as cell-based. The following applies: 24 hours treatment, 100 ng/mL. On the procedure:
as §1, §2
For orientation: In qPCR the cycle at which signal appears reflects the starting amount.

With FITC-dextran, in data set [1], the hydrodynamic diameter result was “approximately 100 nm”.
In the case of “IFN-γ: interferon gamma injected directly into tumors”, the “time cytokine levels are maintained in the tumor” value in data set [2] is “at least 4 h”.

B1: IFN-λ: recombinant mouse IFN-λ2 (R&D Systems, 4635-ML-025/CF) (protein, UniProt Q4VK74 20-193, looked up)
Interferon lambda-2: DPVPRATRLPVEAKDCHIAQFKSLSPKELQAFKKAKDAIEKRLLEKDLRCSSHLFPRAWDLKQLQVQERPKALQAEVALTLKVWENMTDSALATILGQPLHTLSHIHSQLQTCTQLQATAEPRSPSRRLSRWLHRLQEAQSKETPGCLEASVTSNLFRLLTRDLKCVANGDQCV
For B1, the “Doxil accumulation in liver, spleen vs PBS pretreatment” value in the data set on CT26 tumor-bearing mice (1 μg IFN-λ iv 24 h before 10 mg/kg Doxil) is “reduction”. For the same molecule, the “Doxil accumulation in the skin, kidney, lungs, and heart vs PBS pretreatment” value in the data set on CT26 tumor-bearing mice (1 μg IFN-λ iv 24 h before 10 mg/kg Doxil, tissues 24 h later) is listed as “significantly reduces”. Further, the “Doxil accumulation in tumor and plasma vs PBS pretreatment” value in the data set on CT26 tumor-bearing mice (not statistically significant) was “increase”.

B2: IL29: recombinant human IL-29 (R&D Systems 1598-IL-025) (protein, UniProt Q8IU54 20-200, looked up)
Interferon lambda-1: GPVPTSKPTTTGKGCHIGRFKSLSPQELASFKKARDALEESLKLKNWSCSSPVFPGNWDLRLLQVRERPVALEAELALTLKVLEAAAGPALEDVLDQPLHTLHHILSQLQACIQPQPTAGPRPRGRLHHWLHRLQEAPKKESAGCLEASVTFNLFRLLTRDLKYVADGNLCLRTSTHPEST
In turn, B2 gave a ΔΔCt in data set [3] (vs untreated) of −1.092. Moreover, the “2^-ΔΔCt (Relative fold-change compared to untreated)” value in data set [3] (100 ng/mL cytokine or 1 μg/mL lipoplexes) is 2.132. In data set [3] (100 ng/mL cytokine or 1 μg/mL lipoplexes, reference RNA18S5), this molecule yielded a ΔCt mean of 19.476. In the data set on IFNLR1 gene expression, the “IFN λR1 expression in endothelial cells” value was “no expression detected” and the ΔCt mean entry is reported as “No Amplification”.
